Assay results: PMC6642198 (Scientific Reports, 2019)

T1: KCTD1 (full-length, residues 1-257) (human), Q719H9
T1 chain: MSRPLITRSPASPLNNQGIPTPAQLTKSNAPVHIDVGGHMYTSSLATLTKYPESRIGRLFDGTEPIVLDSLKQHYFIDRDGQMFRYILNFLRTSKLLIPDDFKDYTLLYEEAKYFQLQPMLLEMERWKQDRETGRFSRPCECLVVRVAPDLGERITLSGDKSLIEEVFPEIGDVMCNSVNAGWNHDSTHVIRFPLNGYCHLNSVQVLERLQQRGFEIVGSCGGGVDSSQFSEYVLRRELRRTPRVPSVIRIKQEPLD


Columns and labels:
[1] = target: the molecule itself; assay: SEC; analytical size-exclusion chromatography, Superdex 200 10/30, Tris-HCl 20 mM pH 7.8, NaCl 100 mM, glycerol 5%, CHAPS 0.01%, DTT 4 mM; column calibrated with marker proteins; number of chains from apparent over theoretical monomer molecular weight
[2] = target: T1, KCTD1 (full-length, residues 1-257) …; assay: as above; details: remark: other sources report otherwise

| Binder | binding result [1] | also measured |
| --- | --- | --- |
| KCTD1 BTB domain (KCTD1^BTB, residues 1-135) (domain or fragment, human, UniProt Q719H9 1-135, looked up, KCTD1, pre-BTB region and BTB domain, residues 1-135; source: E. coli BL21(DE3), purified (His-trap, TEV digestion, Superdex 200); not shown: polyHis, N-terminal, cleaved) MSRPLITRSPASPLNNQGIPTPAQLTKSNAPVHIDVGGHMYTSSLATLTKYPESRIGRLFDGTEPIVLDSLKQHYFIDRDGQMFRYILNFLRTSKLLIPDDFKDYTLLYEEAKYFQLQPMLLEMERWKQDRETGR | – | stoichiometry N [1]: ~4.5 |
| KCTD1 (full-length, residues 1-257), Q719H9 1-257 (natural protein) MSRPLITRSPASPLNNQGIPTPAQLTKSNAPVHIDVGGHMYTSSLATLTKYPESRIGRLFDGTEPIVLDSLKQHYFIDRDGQMFRYILNFLRTSKLLIPDDFKDYTLLYEEAKYFQLQPMLLEMERWKQDRETGRFSRPCECLVVRVAPDLGERITLSGDKSLIEEVFPEIGDVMCNSVNAGWNHDSTHVIRFPLNGYCHLNSVQVLERLQQRGFEIVGSCGGGVDSSQFSEYVLRRELRRTPRVPSVIRIKQEPLD | – | stoichiometry N [2]: 4.5 |
| KCTD1^H33P (full-length KCTD1 with the SEN-causing mutation H33P) (natural protein, human, UniProt Q719H9 1-257, looked up, KCTD1, full-length protein, residues 1-257, disease-causing missense variant H33P; the mutation occurs in families with SEN syndrome; also called KCTD^H33P; source: E. coli BL21(DE3), purified (His-trap, TEV digestion, Superdex 200); not shown: polyHis, N-terminal, cleaved) MSRPLITRSPASPLNNQGIPTPAQLTKSNAPVPIDVGGHMYTSSLATLTKYPESRIGRLFDGTEPIVLDSLKQHYFIDRDGQMFRYILNFLRTSKLLIPDDFKDYTLLYEEAKYFQLQPMLLEMERWKQDRETGRFSRPCECLVVRVAPDLGERITLSGDKSLIEEVFPEIGDVMCNSVNAGWNHDSTHVIRFPLNGYCHLNSVQVLERLQQRGFEIVGSCGGGVDSSQFSEYVLRRELRRTPRVPSVIRIKQEPLD | binds | – |
| KCTD1^P20S (full-length KCTD1 with the SEN-causing mutation P20S) (natural protein, human, UniProt Q719H9 1-257, looked up, KCTD1, full-length protein, residues 1-257, disease-causing missense variant P20S; the mutation occurs in families with SEN syndrome; also called KCTD^P20S; source: E. coli BL21(DE3), purified (His-trap, TEV digestion, Superdex 200); not shown: polyHis, N-terminal, cleaved) MSRPLITRSPASPLNNQGISTPAQLTKSNAPVHIDVGGHMYTSSLATLTKYPESRIGRLFDGTEPIVLDSLKQHYFIDRDGQMFRYILNFLRTSKLLIPDDFKDYTLLYEEAKYFQLQPMLLEMERWKQDRETGRFSRPCECLVVRVAPDLGERITLSGDKSLIEEVFPEIGDVMCNSVNAGWNHDSTHVIRFPLNGYCHLNSVQVLERLQQRGFEIVGSCGGGVDSSQFSEYVLRRELRRTPRVPSVIRIKQEPLD | binds | – |
| KCTD1^D69E (full-length KCTD1 with the SEN-causing mutation D69E) (natural protein, human, UniProt Q719H9 1-257, looked up, KCTD1, full-length protein, residues 1-257, disease-causing missense variant D69E; the mutation occurs in families with SEN syndrome; also called KCTD^D69E; source: E. coli BL21(DE3), purified (His-trap, TEV digestion, Superdex 200); not shown: polyHis, N-terminal, cleaved) MSRPLITRSPASPLNNQGIPTPAQLTKSNAPVHIDVGGHMYTSSLATLTKYPESRIGRLFDGTEPIVLESLKQHYFIDRDGQMFRYILNFLRTSKLLIPDDFKDYTLLYEEAKYFQLQPMLLEMERWKQDRETGRFSRPCECLVVRVAPDLGERITLSGDKSLIEEVFPEIGDVMCNSVNAGWNHDSTHVIRFPLNGYCHLNSVQVLERLQQRGFEIVGSCGGGVDSSQFSEYVLRRELRRTPRVPSVIRIKQEPLD | binds | – |
| KCTD1^H74P (full-length KCTD1 with the SEN-causing mutation H74P) (natural protein, human, UniProt Q719H9 1-257, looked up, KCTD1, full-length protein, residues 1-257, disease-causing missense variant H74P; the mutation occurs in families with SEN syndrome; also called KCTD^H74P; source: E. coli BL21(DE3), purified (His-trap, TEV digestion, Superdex 200); not shown: polyHis, N-terminal, cleaved) MSRPLITRSPASPLNNQGIPTPAQLTKSNAPVHIDVGGHMYTSSLATLTKYPESRIGRLFDGTEPIVLDSLKQPYFIDRDGQMFRYILNFLRTSKLLIPDDFKDYTLLYEEAKYFQLQPMLLEMERWKQDRETGRFSRPCECLVVRVAPDLGERITLSGDKSLIEEVFPEIGDVMCNSVNAGWNHDSTHVIRFPLNGYCHLNSVQVLERLQQRGFEIVGSCGGGVDSSQFSEYVLRRELRRTPRVPSVIRIKQEPLD | binds | – |
| KCTD1^G62D (full-length KCTD1 with the SEN-causing mutation G62D) (natural protein, human, UniProt Q719H9 1-257, looked up, KCTD1, full-length protein, residues 1-257, disease-causing missense variant G62D; the mutation occurs in families with SEN syndrome; One sentence of the modelling section prints Gly62Glu; everywhere else G62D; also called KCTD^G62D; source: E. coli BL21(DE3), purified (His-trap, TEV digestion, Superdex 200); not shown: polyHis, N-terminal, cleaved) MSRPLITRSPASPLNNQGIPTPAQLTKSNAPVHIDVGGHMYTSSLATLTKYPESRIGRLFDDTEPIVLDSLKQHYFIDRDGQMFRYILNFLRTSKLLIPDDFKDYTLLYEEAKYFQLQPMLLEMERWKQDRETGRFSRPCECLVVRVAPDLGERITLSGDKSLIEEVFPEIGDVMCNSVNAGWNHDSTHVIRFPLNGYCHLNSVQVLERLQQRGFEIVGSCGGGVDSSQFSEYVLRRELRRTPRVPSVIRIKQEPLD | binds | – |
| KCTD1 C-terminal domain (KCTD1^CTD, residues 134-235) (domain or fragment, human, UniProt Q719H9 134-235, looked up, KCTD1, C-terminal domain, residues 134-235; The sentences on expression host and on TEV removal of the tag list KCTD1, KCTD1^BTB and the point mutants but not KCTD1^CTD; source: recombinantly expressed (pETM11), purified (Superdex 200)) GRFSRPCECLVVRVAPDLGERITLSGDKSLIEEVFPEIGDVMCNSVNAGWNHDSTHVIRFPLNGYCHLNSVQVLERLQQRGFEIVGSCGGGVDSSQFSEYVL | – | stoichiometry N [1]: ~4.5 |
